How the values were obtained:
[1] = target: H-Ara h 2/6 (native Ara h 2/6 heated for 15 min to 110°C alone); experiment: SEC; Superdex-75 column on an Äkta Basic FPLC, calibrated with gel filtration molecular weight standards; Ara h 2/6 before and after heating for 15 min at 110°C in the presence or absence of glucose
[2] = target: G-Ara h 2/6 (native Ara h 2/6 heated for 15 min to 110°C in the presence of 100 mM glucose); experiment: as above

| Substance | percent of the protein remaining monomeric [1] | percent of the protein remaining monomeric [2] |
| --- | --- | --- |
| H-Ara h 2/6 (native Ara h 2/6 heated for 15 min to 110°C alone) | 20% | – |
| G-Ara h 2/6 (native Ara h 2/6 heated for 15 min to 110°C in the presence of 100 mM glucose) | – | 20% |

Reference: publication PMC3162016
